Assay results from patent publication US10005846 (LIFEARC, dated 2018).

T1: TG1 (human, UniProt P22735)
T1 construct: recombinant, Zedira; also called recombinant human TG1; Keratinocyte Transglutaminase
T1 sequence (enzyme, looked up): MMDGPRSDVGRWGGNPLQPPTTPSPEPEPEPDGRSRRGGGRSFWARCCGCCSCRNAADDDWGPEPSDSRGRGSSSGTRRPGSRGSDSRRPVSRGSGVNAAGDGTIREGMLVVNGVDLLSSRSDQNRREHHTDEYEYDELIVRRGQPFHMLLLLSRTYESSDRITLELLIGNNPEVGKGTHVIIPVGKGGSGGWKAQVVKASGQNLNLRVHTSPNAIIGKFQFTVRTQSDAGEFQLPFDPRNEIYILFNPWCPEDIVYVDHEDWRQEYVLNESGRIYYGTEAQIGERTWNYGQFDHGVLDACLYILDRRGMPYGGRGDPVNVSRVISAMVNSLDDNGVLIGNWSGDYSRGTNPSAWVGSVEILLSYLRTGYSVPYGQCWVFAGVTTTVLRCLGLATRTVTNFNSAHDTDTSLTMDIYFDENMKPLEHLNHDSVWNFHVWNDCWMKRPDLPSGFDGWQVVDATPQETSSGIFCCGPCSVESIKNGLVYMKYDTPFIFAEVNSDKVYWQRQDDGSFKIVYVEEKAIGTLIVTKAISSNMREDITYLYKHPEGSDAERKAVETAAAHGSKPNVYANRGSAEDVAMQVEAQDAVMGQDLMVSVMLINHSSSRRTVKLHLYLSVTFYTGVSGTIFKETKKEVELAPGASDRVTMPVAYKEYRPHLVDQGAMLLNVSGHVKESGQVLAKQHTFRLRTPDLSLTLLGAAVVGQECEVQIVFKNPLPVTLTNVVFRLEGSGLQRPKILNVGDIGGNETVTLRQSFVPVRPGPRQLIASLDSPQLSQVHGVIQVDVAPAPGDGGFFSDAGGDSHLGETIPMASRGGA

T2: TG3 (human, UniProt Q08188)
T2 construct: recombinant, Zedira; also called recombinant human TG3; Epidermal Transglutaminase
T2 sequence (enzyme, looked up): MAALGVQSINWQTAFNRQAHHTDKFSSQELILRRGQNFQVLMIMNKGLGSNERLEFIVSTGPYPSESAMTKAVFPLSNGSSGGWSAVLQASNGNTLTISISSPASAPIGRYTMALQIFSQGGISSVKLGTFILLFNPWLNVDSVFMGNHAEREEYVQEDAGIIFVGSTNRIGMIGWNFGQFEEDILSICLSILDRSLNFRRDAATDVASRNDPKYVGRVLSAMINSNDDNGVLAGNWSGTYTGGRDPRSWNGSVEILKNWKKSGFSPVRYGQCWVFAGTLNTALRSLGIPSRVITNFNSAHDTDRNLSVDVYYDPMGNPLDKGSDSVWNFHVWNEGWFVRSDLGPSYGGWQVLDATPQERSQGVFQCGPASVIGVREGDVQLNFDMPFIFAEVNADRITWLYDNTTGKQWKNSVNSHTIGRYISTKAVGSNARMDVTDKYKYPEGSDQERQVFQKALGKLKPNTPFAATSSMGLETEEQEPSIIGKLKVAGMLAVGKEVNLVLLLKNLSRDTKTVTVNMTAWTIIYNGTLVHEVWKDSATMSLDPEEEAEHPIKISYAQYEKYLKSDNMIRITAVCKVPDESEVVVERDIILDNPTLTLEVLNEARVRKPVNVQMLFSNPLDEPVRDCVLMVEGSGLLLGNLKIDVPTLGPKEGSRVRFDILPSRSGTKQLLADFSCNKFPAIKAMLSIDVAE

T3: TG13
T3 construct: also called Factor XIIIa
T3 chain: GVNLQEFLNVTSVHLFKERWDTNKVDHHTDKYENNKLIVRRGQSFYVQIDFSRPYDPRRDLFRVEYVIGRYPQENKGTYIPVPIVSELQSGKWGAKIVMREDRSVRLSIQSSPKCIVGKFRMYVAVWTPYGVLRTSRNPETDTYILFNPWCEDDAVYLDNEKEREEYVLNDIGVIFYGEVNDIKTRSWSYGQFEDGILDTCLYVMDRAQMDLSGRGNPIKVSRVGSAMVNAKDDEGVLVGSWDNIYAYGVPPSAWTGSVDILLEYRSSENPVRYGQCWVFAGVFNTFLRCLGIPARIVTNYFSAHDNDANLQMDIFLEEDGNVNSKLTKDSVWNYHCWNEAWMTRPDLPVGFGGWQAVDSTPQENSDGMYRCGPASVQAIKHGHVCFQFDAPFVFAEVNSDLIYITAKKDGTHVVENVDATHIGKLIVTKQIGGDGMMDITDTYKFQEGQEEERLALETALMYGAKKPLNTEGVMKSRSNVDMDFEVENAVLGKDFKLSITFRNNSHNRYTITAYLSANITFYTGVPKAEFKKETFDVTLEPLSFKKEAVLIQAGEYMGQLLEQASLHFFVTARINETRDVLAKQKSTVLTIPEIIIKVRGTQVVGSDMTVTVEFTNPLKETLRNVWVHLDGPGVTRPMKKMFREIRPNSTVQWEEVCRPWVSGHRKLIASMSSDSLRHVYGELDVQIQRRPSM


Columns and labels:
Experiment in all cases: ELISA, hybridoma conditioned medium, plates coated with recombinant TG (100 ng/well) [panel A]
TG1 = molecular target: T1, TG1
Procedure: (§1) Conditioned medium or purified IgG were tested for reactivity to transglutaminase family members. The ability of each to bind to each transglutaminase (TG1, TG2, TG3, TG5, TG7 and Factor XIIIa; all Zedira) was determined using a plate binding assay. Microtiter plates (Costar, Cambridge, UK) were coated with recombinant TG (Zedira, Darmstadt, Germany) in 50 μl of 0.1 M bicarbonate/carbonate buffer (pH 9.6) overnight at 4° C. Plates were blocked for 2 h at 37° C. with 200 μl PBS containing 3% w/v BSA. Plates were washed three times with PBS containing 0.05% Tween 20 (washing buffer) and 100 μl of diluted conditioned medium (dilution 1:5 to 1:20) or purified anti-TG2 catalytic core mAbs was added. Plates were incubated for a further 1 h at room temperature. The washing step was repeated and anti-mouse gamma chain-horseradish peroxidase (1:5000) in PBS containing 0.05% Tween 20 (v:v) and 1% BSA (w:v) (Sigma, Poole UK) was added for 1 h. […] The reaction was stopped by adding 25 μl of 0.1 M H_2SO_4 and the absorbance at 450 nm was determined.

TG3 = molecular target: T2, TG3
Procedure: as §1

TG13 = molecular target: T3, TG13
Procedure: as §1

binding result (TG1) | binding result (TG3) | binding result (TG13) | Binder
no binding | no binding | no binding | AB1 murine monoclonal antibody (antibody, V domains shown, Mouse hybridoma IgG; heavy chain amplified with constant region primer MHCG1, kappa light chain; also called mAB003) VH: EVQLVESGGGLVKPGGSLKLSCAASGFTLSSSAMSWVRQTPDRRLEWVATISVGGGKTYYPDSVKGRFTISRDNAKNTLYLQMNSLRSEDTAMYYCAKLISLYWGQGTTLTVSS VL: DIKMTQSPSSMYASLGERVTITCKASQDINSYLTWFQQKPGKSPKTLIYRTNRLFDGVPSRFSGSGSGQDFFLTISSLEYEDMGIYYCLQYDDFPYTFGGGTKLEIK
no binding | – | – | DC1 murine monoclonal antibody (antibody, V domains shown, Mouse hybridoma IgG; heavy chain amplified with primer MHCG1, kappa light chain; also called mDC001) VH: EVQLVESGGGLVKPGGSLKLSCAASGFTLSTHAMSWVRQTPEKRLEWVATISSGGRSTYYPDSVKGRFTISRDNVKNTLYLQLSSLRSEDTAVYFCARLISTYWGQGTTLTVSS VL: DITMTQSPSSIYASLGERVTITCKASQDINSYLTWFQQKPGKSPKILIYLVNRLVDGVPSRFSGSGSGQDYALTISSLEYEDMGIYYCLQYDDFPYTFGGGTKLEIK
no binding | no binding | no binding | BB7 murine monoclonal antibody (antibody, V domains shown, Mouse hybridoma IgG; heavy chain amplified with primer MHCG1, kappa light chain; also called mBB001) VH: AVQLVESGGGLVKPGGSLKLSCAASGIIFSSSAMSWVRQTPEKRLEWVATISSGGRSTYYPDSVKGRFTVSRDSAKNTLYLQMDSLRSEDTAIYYCAKLISPYWGQGTTLTVSS VL: AIKMTQSPSSMYASLGERVIITCKASQDINSYLTWFQQKPGKSPKTLIYLTNRLMDGVPSRFSGSGSGQEFLLTISGLEHEDMGIYYCLQYVDFPYTFGGGTKLEIK
no binding | no binding | no binding | AG9 murine monoclonal antibody (antibody, V domains shown, Mouse hybridoma IgG; heavy chain amplified with primer MHCG1, kappa light chain) VH: EVQLQQSGPELVKPGASVKMSCRASGYTFTTYVIHWVKQKPGQGLEWIGYINPYNDGARYNEKFKGKATLTSDKSSTTAYMELSSLTSEDSAVYYCARLSSDYWGQGTTLTVSS VL: DVLMTQNPLSLPVSLGDQASISCRSSRSIEHSNGNTYLEWYLQKPGQSPKFLIYKVSNRFSGVPDRFSGSGSGTDFTLRISSVEAEDLGVYYCFQGSHVPFTFGGGTKLEIK
no binding | no binding | no binding | EH6 murine monoclonal antibody (antibody, V domains shown, Mouse hybridoma IgG; heavy chain amplified with primer MHCG2B, kappa light chain) VH: EVQLQQSGPELVKPGASVKMSCKASGYTFTSYVMHWVKQKPGQGLEWIGFINPYNDGTKYNEKFKGKATLTSDKASTTAYMELSSLTSEDSAVYYCARFSSGYWGQGTTLTVSS VL: DVLMTQTPLSLPVSLGDQASISCRSSQSIVHSNGNTYLEWYLQKPGQSPKLLIYKVSNRFSGVPDRFSGSGSGTDFTLKISRVGAEDLGVYYCLQVSHVPFTFGSGTKLEIK
no binding | no binding | no binding | AH3 murine monoclonal antibody (antibody, V domains shown, Mouse hybridoma IgG; heavy chain amplified with primer MHCG2B, kappa light chain) VH: EVQLQQSGPELVKPGASVKMSCRASGYTFTTYVIHWVKQKPGQGLEWIGYINPYNDGARYNEKFKGKATLTSDKSSTTAYMELSSLTSEDSAVYYCARLSSDYWGQGTTLTVSS VL: DVLMTQNPLSLPVSLGDQASISCRSSRSIEHSNGNTYLEWYLQKPGQSPKFLIYKVSNRFSGVPDRFSGSGSGTDFTLRISSVEAEDLGVYYCFQGSHVPFTFGGGTKLEIK
no binding | no binding | no binding | JE12 murine monoclonal antibody (antibody, V domains shown, Mouse hybridoma IgG; heavy chain amplified with primer MHCG1, kappa light chain) VH: EVQLQQSGPELVKPGASVKMSCKASGYRFTSYVMHWVKQKSGQGLEWIGYINPYNDGAKYNEKFKGKATLTSDKSSSTAYMELSSLTSEDSAVYYCARLSSDYWGQGTTLTVSS VL: DVLMTQNPLSLPVSLGDQASISCRSSQSIEHINGNTYLEWYLQKPGQSPKFLIYKVSNRFSGVPDRFSGSGSGTDFTLRISRVEAEDLGIYYCFQGSHVPFTFGGGTKLEIK
no binding | no binding | no binding | DH2 murine monoclonal antibody (antibody, V domains shown, Mouse hybridoma IgG; heavy chain amplified with primer MHCG2B, kappa light chain; also called mDH001) VH: not shown VL: QIVLTQSPAIMSASPGEKVTMTCSASSSVSYMYWYQQKPGSSPRLLIYDTSNLASGVPVRFSGSGSGTSYSLTISRMEAEDAATFYCQQWSSSPLTFGAGTKLELK
no binding | no binding | no binding | DD9 murine monoclonal antibody (antibody, V domains shown, Mouse hybridoma IgG; heavy chain amplified with primer MHCG2A, kappa light chain; also called mDD9001) VH: not shown VL: QIVLTQSPAIMSASPGEKVTMTCSASSSVDYMYWYQQKPGSSPRLLIYDTSNLASGVPVRFSGSGSGTSYSLTISRMGAEDAATYYCQQWNSSPLTFGAGTKLELK
